Experimental data taken from IntAct's records for PubMed 35512704.

B1: Mothers against decapentaplegic homolog 4 (Homo sapiens), Q13485 (parent)
chain: MDNMSITNTPTSNDACLSIVHSLMCHRQGGESETFAKRAIESLVKKLKEKKDELDSLITAITTNGAHPSKCVTIQRTLDGRLQVAGRKGFPHVIYARLWRWPDLHKNELKHVKYCQYAFDLKCDSVCVNPYHYERVVSPGIDLSGLTLQSNAPSSMMVKDEYVHDFEGQPSLSTEGHSIQTIQHPPSNRASTETYSTPALLAPSESNATSTANFPNIPVASTSQPASILGGSHSEGLLQIASGPQPGQQQNGFTGQPATYHHNSTTTWTGSRTAPYTPNLPHHQNGHLQHHPPMPPHPGHYWPVHNELAFQPPISNHPAPEYWCSIAYFEMDVQVGETFKVPSSCPIVTVDGYVDPSGGDRFCLGQLSNVHRTEAIERARLHIGKGVQLECKGEGDVWVRCLSDHAVFVQSYYLDREAGRAPGDAVHKIYPSAYIKVFDLRQCHRQMQQQAATAQAAAAAQAAAVAGNIPGPGSVGGIAPAISLSAAAGIGVDDLRRLCILRMSFVKGWGPDYPRQSIKETPCWIEIHLHRALQLLDEVLHTMPIADPQPLD

Variants of: B1
Conditions: with etv1_human ETV1, P50549

Row | effect of a mutation on the interaction | Variant
1 | with no effect | G386D

Variants of: B1
Conditions: with ezh2_human EZH2, Q15910

Row | effect of a mutation on the interaction | Variant
2 | with no effect | G386D

Variants of: B1
Conditions: with fadd_human FADD

Row | effect of a mutation on the interaction | Variant
3 | with no effect | G386D

Variants of: B1
Conditions: with facd2_human FANCD2, Q9BXW9

Row | effect of a mutation on the interaction | Variant
4 | with no effect | G386D

Variants of: B1
Conditions: with tnr6_human FAS

Row | effect of a mutation on the interaction | Variant
5 | with no effect | G386D

Variants of: B1
Conditions: with fgf19_human FGF19, O95750
fgf19_human FGF19, O95750, sequence (O95750 whole entry): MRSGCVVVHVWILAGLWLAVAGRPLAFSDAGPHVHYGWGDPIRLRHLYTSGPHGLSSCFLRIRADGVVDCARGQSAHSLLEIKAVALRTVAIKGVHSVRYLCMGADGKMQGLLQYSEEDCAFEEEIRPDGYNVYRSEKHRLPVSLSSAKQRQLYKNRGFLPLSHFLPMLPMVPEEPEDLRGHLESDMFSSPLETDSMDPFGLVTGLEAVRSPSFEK

Row | effect of a mutation on the interaction | Variant
6 | with no effect | G386D

Variants of: B1
Conditions: with fgfr3_human FGFR3, P22607

Row | effect of a mutation on the interaction | Variant
7 | with no effect | G386D

Variants of: B1
Conditions: with fgfr4_human FGFR4, P22455

Row | effect of a mutation on the interaction | Variant
8 | with no effect | G386D

Variants of: B1
Conditions: with foxo1_human FOXO1, Q12778
foxo1_human FOXO1, Q12778, sequence (Q12778 whole entry): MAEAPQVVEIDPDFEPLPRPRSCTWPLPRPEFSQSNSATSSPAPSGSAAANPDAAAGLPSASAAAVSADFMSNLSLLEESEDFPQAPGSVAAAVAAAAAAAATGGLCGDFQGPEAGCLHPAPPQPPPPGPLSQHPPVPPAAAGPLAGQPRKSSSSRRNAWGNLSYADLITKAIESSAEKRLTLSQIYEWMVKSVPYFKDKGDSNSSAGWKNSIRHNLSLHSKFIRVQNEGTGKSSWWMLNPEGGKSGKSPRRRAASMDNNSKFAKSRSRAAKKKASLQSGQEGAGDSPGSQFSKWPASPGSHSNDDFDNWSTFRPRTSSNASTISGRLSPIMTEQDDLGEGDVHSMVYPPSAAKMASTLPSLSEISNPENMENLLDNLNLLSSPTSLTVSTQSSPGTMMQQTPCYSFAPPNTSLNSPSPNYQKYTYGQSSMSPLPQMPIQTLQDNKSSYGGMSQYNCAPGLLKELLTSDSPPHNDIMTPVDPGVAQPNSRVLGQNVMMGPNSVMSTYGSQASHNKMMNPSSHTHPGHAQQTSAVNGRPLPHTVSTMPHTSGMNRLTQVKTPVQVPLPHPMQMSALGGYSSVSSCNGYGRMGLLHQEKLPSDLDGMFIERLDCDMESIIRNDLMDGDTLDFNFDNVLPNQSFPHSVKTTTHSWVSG

Row | effect of a mutation on the interaction | Variant
9 | with no effect | G386D

Variants of: B1
Conditions: with foxo3_human FOXO3, O43524

Row | effect of a mutation on the interaction | Variant
10 | with no effect | G386D

Variants of: B1
Conditions: with gbra6_human GABRA6, Q16445

Row | effect of a mutation on the interaction | Variant
11 | with no effect | G386D

Variants of: B1
Conditions: with gata2_human GATA2, P23769

Row | effect of a mutation on the interaction | Variant
12 | with no effect | G386D

Variants of: B1
Conditions: with gata3_human GATA3, P23771
gata3_human GATA3, P23771, sequence (P23771 whole entry): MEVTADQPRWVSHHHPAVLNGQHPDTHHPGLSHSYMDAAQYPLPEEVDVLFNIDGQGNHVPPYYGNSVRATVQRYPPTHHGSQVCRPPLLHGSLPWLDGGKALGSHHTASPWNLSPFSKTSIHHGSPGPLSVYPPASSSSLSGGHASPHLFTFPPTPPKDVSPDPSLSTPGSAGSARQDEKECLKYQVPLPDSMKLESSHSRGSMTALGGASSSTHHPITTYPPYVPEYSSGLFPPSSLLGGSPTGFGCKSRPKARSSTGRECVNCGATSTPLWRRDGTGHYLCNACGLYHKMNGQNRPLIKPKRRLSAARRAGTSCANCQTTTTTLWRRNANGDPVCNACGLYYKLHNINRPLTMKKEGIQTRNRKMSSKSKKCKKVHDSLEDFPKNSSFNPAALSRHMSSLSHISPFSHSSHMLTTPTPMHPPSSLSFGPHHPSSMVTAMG

Row | effect of a mutation on the interaction | Variant
13 | with no effect | G386D

Variants of: B1
Conditions: with gna11_human GNA11, P29992
gna11_human GNA11, P29992, sequence (P29992 whole entry): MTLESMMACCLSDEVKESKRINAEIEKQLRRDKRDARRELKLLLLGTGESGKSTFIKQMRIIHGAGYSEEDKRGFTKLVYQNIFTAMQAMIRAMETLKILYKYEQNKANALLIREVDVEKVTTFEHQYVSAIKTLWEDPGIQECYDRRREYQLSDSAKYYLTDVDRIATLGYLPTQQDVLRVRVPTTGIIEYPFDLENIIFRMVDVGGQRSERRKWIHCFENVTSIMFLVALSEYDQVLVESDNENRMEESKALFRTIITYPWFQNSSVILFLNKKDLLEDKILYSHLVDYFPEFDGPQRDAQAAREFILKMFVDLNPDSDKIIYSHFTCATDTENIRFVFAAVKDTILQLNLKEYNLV

Row | effect of a mutation on the interaction | Variant
14 | with no effect | G386D

Variants of: B1
Conditions: with gna13_human GNA13, Q14344
gna13_human GNA13, Q14344, sequence (Q14344 whole entry): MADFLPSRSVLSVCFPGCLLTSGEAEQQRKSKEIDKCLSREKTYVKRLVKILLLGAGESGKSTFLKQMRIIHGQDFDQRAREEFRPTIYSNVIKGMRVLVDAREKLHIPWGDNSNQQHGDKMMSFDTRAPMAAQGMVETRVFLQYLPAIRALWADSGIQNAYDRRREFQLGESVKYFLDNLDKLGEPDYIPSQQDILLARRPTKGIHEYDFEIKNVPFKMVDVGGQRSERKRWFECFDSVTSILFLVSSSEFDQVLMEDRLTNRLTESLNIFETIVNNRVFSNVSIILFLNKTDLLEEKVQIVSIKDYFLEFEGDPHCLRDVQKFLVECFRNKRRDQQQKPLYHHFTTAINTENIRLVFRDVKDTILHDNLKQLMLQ

Row | effect of a mutation on the interaction | Variant
15 | with no effect | G386D

Variants of: B1
Conditions: with gnaq_human GNAQ

Row | effect of a mutation on the interaction | Variant
16 | with no effect | G386D

Variants of: B1
Conditions: with grm1_human GRM1, Q13255

Row | effect of a mutation on the interaction | Variant
17 | with no effect | G386D

Variants of: B1
Conditions: with grm3_human GRM3, Q14832
grm3_human GRM3, Q14832, sequence (Q14832 whole entry, looked up): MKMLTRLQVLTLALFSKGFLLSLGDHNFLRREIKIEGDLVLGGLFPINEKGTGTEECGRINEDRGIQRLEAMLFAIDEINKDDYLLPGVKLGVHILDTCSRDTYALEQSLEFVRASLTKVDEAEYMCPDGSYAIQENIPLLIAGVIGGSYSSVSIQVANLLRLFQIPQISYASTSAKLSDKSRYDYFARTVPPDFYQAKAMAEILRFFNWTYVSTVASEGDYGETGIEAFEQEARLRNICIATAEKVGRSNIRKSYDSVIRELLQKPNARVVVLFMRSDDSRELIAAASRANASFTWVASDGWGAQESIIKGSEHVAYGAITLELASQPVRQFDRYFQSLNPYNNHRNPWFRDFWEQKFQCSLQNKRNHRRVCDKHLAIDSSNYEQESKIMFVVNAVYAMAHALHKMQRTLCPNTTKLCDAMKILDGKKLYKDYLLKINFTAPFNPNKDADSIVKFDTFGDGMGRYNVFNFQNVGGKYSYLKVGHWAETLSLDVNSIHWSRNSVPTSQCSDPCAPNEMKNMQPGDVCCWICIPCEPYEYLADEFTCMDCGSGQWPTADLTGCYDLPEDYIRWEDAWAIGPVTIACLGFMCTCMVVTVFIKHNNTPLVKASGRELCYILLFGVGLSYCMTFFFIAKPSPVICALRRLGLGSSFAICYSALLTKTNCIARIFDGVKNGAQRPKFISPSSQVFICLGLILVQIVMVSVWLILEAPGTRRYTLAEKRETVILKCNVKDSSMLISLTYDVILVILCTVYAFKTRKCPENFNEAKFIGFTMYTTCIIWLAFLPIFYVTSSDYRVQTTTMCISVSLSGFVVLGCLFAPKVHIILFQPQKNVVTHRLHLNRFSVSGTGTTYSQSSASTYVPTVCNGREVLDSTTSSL

Row | effect of a mutation on the interaction | Variant
18 | with no effect | G386D

Variants of: B1
Conditions: with gsk3a_human GSK3A

Row | effect of a mutation on the interaction | Variant
19 | with no effect | G386D

Variants of: B1
Conditions: with gsk3b_human GSK3B

Row | effect of a mutation on the interaction | Variant
20 | with no effect | G386D

Variants of: B1
Conditions: with hdac1_human HDAC1, Q13547
hdac1_human HDAC1, Q13547, sequence (Q13547 whole entry): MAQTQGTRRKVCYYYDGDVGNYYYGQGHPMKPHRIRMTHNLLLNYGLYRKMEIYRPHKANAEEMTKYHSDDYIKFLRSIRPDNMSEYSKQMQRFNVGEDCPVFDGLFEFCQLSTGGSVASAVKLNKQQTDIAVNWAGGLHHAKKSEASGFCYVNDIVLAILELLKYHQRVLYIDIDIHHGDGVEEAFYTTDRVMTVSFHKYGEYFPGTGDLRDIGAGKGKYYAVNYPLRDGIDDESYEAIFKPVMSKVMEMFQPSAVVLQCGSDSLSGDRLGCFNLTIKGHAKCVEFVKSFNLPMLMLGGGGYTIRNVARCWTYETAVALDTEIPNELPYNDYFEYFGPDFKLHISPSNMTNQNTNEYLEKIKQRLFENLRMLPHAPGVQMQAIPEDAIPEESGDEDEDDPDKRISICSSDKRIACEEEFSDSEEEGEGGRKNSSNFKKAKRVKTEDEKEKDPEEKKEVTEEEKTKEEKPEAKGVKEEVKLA

Row | effect of a mutation on the interaction | Variant
21 | with no effect | G386D

Variants of: B1
Conditions: with hdac3_human HDAC3, O15379

Row | effect of a mutation on the interaction | Variant
22 | with no effect | G386D

Variants of: B1
Conditions: with hgf_human HGF

Row | effect of a mutation on the interaction | Variant
23 | with no effect | G386D

Variants of: B1
Conditions: with hif1a_human HIF1A

Row | effect of a mutation on the interaction | Variant
24 | with no effect | G386D

Variants of: B1
Conditions: with h31_human H3C1, P68431

Row | effect of a mutation on the interaction | Variant
25 | with no effect | G386D

Variants of: B1
Conditions: with hlab_human HLA-B

Row | effect of a mutation on the interaction | Variant
26 | with no effect | G386D

Variants of: B1
Conditions: with hnf1a_human HNF1A

Row | effect of a mutation on the interaction | Variant
27 | with no effect | G386D

Variants of: B1
Conditions: with rash_human HRAS

Row | effect of a mutation on the interaction | Variant
28 | with no effect | G386D

Variants of: B1
Conditions: with hs90a_human HSP90AA1, P07900

Row | effect of a mutation on the interaction | Variant
29 | with no effect | G386D

Variants of: B1
Conditions: with igf2_human IGF2, P01344

Row | effect of a mutation on the interaction | Variant
30 | with no effect | G386D

Variants of: B1
Conditions: with il7ra_human IL7R

Row | effect of a mutation on the interaction | Variant
31 | with no effect | G386D

Variants of: B1
Conditions: with int12_human INTS12, Q96CB8

Row | effect of a mutation on the interaction | Variant
32 | with no effect | G386D

Variants of: B1
Conditions: with irf6_human IRF6, O14896

Row | effect of a mutation on the interaction | Variant
33 | with no effect | G386D

Variants of: B1
Conditions: with irs1_human IRS1, P35568

Row | effect of a mutation on the interaction | Variant
34 | with no effect | G386D

Variants of: B1
Conditions: with ist1_human IST1, P53990
ist1_human IST1, P53990, sequence (P53990 whole entry): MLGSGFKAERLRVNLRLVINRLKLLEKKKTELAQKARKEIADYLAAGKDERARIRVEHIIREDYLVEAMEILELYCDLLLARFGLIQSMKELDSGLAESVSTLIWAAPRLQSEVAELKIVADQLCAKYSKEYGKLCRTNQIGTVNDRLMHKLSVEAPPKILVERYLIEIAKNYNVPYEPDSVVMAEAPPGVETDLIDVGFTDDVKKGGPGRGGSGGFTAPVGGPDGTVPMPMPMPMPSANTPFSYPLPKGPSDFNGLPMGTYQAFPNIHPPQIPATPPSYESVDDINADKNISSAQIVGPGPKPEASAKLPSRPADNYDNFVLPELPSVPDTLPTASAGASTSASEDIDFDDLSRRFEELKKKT

Row | effect of a mutation on the interaction | Variant
35 | with no effect | G386D

Variants of: B1
Conditions: with jak1_human JAK1, P23458

Row | effect of a mutation on the interaction | Variant
36 | with no effect | G386D

Variants of: B1
Conditions: with jak3_human JAK3, P52333
jak3_human JAK3, P52333, sequence (P52333 whole entry): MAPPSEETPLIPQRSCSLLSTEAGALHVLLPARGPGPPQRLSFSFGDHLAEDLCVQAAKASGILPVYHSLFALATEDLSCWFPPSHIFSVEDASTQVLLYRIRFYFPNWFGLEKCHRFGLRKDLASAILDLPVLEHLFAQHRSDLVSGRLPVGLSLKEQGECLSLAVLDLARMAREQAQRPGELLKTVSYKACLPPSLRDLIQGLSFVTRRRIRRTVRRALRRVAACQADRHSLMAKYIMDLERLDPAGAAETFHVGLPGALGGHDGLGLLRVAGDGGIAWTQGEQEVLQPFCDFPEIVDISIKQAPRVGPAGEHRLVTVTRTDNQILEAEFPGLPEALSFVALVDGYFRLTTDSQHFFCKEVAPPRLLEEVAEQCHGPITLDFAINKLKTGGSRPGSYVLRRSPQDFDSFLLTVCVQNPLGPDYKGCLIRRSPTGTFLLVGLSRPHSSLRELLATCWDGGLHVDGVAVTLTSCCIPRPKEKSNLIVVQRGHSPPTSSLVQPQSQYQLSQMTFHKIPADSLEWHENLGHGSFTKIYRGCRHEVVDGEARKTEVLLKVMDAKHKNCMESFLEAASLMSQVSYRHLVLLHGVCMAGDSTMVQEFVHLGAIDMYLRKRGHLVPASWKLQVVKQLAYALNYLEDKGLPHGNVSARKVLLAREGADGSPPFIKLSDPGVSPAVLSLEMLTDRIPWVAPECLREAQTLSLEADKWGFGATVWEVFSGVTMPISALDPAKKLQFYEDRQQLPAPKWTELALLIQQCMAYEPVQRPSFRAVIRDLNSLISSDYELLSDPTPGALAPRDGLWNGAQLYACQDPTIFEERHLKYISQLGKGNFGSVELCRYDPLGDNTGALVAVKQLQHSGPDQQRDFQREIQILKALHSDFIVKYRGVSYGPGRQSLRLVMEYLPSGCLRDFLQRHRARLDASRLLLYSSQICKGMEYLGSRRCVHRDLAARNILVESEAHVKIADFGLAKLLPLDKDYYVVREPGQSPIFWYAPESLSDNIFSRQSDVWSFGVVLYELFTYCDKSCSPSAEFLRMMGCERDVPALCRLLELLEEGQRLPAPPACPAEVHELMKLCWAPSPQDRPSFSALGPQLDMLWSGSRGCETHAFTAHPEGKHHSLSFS

Row | effect of a mutation on the interaction | Variant
37 | with no effect | G386D

Variants of: B1
Conditions: with kat2a_human KAT2A

Row | effect of a mutation on the interaction | Variant
38 | with no effect | G386D

Variants of: B1
Conditions: with kdm5c_human KDM5C

Row | effect of a mutation on the interaction | Variant
39 | with no effect | G386D

Variants of: B1
Conditions: with kdm6a_human KDM6A

Row | effect of a mutation on the interaction | Variant
40 | with no effect | G386D
